In the assay the target is T1, human B7-H3 antigen, recombinant extracellular domain (ECD) (29-461) (human, UniProt Q5ZPR3 29-461).
T1 construct: range 29-461; Expressed in 293F cells as B7-H3-TEV-cFc-His fusion, cut with TEV protease and cleaned over a nickel column to give the human B7-H3 antigen; also called recombinant human B7-H3 antigen; hB7-H3
T1 sequence (looked up): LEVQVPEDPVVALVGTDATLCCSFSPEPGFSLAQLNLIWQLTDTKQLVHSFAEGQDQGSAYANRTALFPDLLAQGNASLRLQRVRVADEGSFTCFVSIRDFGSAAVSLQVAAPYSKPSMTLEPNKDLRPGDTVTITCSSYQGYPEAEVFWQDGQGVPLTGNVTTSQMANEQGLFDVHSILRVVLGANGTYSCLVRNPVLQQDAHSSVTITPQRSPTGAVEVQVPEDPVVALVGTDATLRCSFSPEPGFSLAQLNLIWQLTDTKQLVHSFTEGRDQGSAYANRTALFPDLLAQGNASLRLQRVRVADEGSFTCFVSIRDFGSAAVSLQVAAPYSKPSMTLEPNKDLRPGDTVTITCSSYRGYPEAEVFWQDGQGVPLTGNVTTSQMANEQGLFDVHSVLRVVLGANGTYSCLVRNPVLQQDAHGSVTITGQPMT
Description: ELISA, coated human B7-H3 antigen. The protocol: The binding activity of the 5D9 to B7-H3 antigen was analyzed by ELISA. Human B7-H3 antigens were coated on the 96-well plate and placed at 4° C. overnight. The antibody 5D9 and controls were diluted to 10 μg/mL, followed by 4-fold dilution gradients to generate a total of 8 different concentrations. The diluted samples and the wells coated antigen were incubated for 1h. After washing, HRP (horseradish peroxidase)-labeled goat anti-human IgG (H+L) secondary antibody was added to the plate and incubated for 1h. TMB (3,3′,5,5′-tetramethylbenzidine) solution was then added to each well after washing for chromogenesis. The absorbance was measured at OD₄₅₀ₙₘ with a microplate reader. Taking the logarithmic value of the sample concentration as the X-axis, and the absorbance OD₄₅₀ₙₘ value as the Y-axis, a dose-response curve was drawn to calculate the EC₅₀. The EC₅₀ represents the binding activity of the antibody to B7-H3 antigen. A negative control IgG group and a positive antibody Enoblituzumab control group were meanwhile set in the experiment.
(In general: An ELISA detects its analyte on a solid surface through an enzyme-linked reagent.)

B1: B7-H3 antibody 5D9 (antibody, V domains shown)
VH: QVQLVQSGAEVKKPGSSVKVSCKASGGTFSNYAINWVRQAPGQGLEWMGGIIPLFGTANYAQKFQGRVTITADESTSTAYMELSSLRSDDTAVYYCARDQVVATSGVNFGMDVWGQGTTVTVSS
VL: DIQMTQEPSLTTSPGGTVTLTCRSSTGAVTTSNYANWVQEKPGQAPRGLIGGTNKRAPGTPARFSGSLIGGKAALTITGVQPEDEAIYFCALWYSNLWVFGGGTKLEIK
notes: Expressed as full antibody (heavy and light chain) in 293F cells, protein A purified, detected with anti-human IgG
For B1, the binding result is listed as “binds”.

Source of the values: patent US20240343809A1 (EXCELMAB, published 2024).
